From publication PMC5693944

Experiments:
Test in all cases: SEC-MALS
[1] = target: Ml1 protein from Mesorhizobium loti (Mesorhizobium loti)
[2] = target: Ml2 protein from Mesorhizobium loti (Mesorhizobium loti)
[3] = target: MucR from Brucella abortus (Brucella abortus 2308)

Ml1 protein from Mesorhizobium loti (natural protein)
stoichiometry N [1]: 10.4

Ml2 protein from Mesorhizobium loti (natural protein)
stoichiometry N [2]: 9.96

MucR from Brucella abortus (natural protein)
stoichiometry N [3]: 10.4
